Patent publication US20210155689A1 (SHANGHAI PHARMAEXPLORER, published 2021)

Assays:
[1] = target: LAG-3-hFc protein (human LAG-3 extracellular region with hFc tag) (human) (UniProt P18627); test: ELISA, inhibition of LSECtin-His binding to coated LAG-3-hFc, antibody 0.320 nM, replicate 2
[2] = target: monkey LAG-3 on cells (HEK293-cLAG-3 stable cell line) (monkey); test: FACS, HEK293-cLAG-3, antibody 1.600 nM
[3] = target: human LAG-3 on cells (HEK293-hLAG-3 stable cell line) (human) (UniProt P18627); test: FACS, HEK293-hLAG-3, antibody 0.013 nM
[4] = target: LAG-3-hFc protein (human LAG-3 extracellular region with hFc tag) (human) (UniProt P18627); test: FACS, inhibition of LAG-3-hFc binding to MHC II on Raji cells, antibody 0.823 nM
[5] = target: LAG-3-hFc protein (human LAG-3 extracellular region with hFc tag) (human) (UniProt P18627); test: ELISA, inhibition of LSECtin-His binding to coated LAG-3-hFc, antibody 8.000 nM, replicate 2
[6] = target: human LAG-3 on cells (HEK293-hLAG-3 stable cell line) (human) (UniProt P18627); test: FACS, HEK293-hLAG-3, antibody 200.000 nM
[7] = target: LAG-3-hFc protein (human LAG-3 extracellular region with hFc tag) (human) (UniProt P18627); test: ELISA, inhibition of LSECtin-His binding to coated LAG-3-hFc, antibody 40.000 nM, replicate 2
[8] = target: human LAG-3 on cells (HEK293-hLAG-3 stable cell line) (human) (UniProt P18627); test: FACS, HEK293-hLAG-3, antibody 1.6 nM
[9] = target: human LAG-3 on cells (HEK293-hLAG-3 stable cell line) (human) (UniProt P18627); test: FACS, HEK293-hLAG-3, antibody 0.064 nM
[10] = target: human LAG-3 on cells (HEK293-hLAG-3 stable cell line) (human) (UniProt P18627); test: FACS, HEK293-hLAG-3, antibody 8.000 nM
[11] = target: LAG-3-hFc protein (human LAG-3 extracellular region with hFc tag) (human) (UniProt P18627); test: ELISA, inhibition of LSECtin-His binding to coated LAG-3-hFc, antibody 0.000 nM, replicate 2
[12] = target: LAG-3-hFc protein (human LAG-3 extracellular region with hFc tag) (human) (UniProt P18627); test: ELISA, inhibition of LSECtin-His binding to coated LAG-3-hFc, antibody 1.600 nM, replicate 1
[13] = target: LAG-3-hFc protein (human LAG-3 extracellular region with hFc tag) (human) (UniProt P18627); test: FACS, inhibition of LAG-3-hFc binding to MHC II on Raji cells, antibody 2.469 nM
[14] = target: LAG-3-hFc protein (human LAG-3 extracellular region with hFc tag) (human) (UniProt P18627); test: ELISA, inhibition of LSECtin-His binding to coated LAG-3-hFc, antibody 200.000 nM, replicate 2
[15] = target: LAG-3-hFc protein (human LAG-3 extracellular region with hFc tag) (human) (UniProt P18627); test: ELISA, inhibition of LSECtin-His binding to coated LAG-3-hFc, antibody 40.000 nM, replicate 1
[16] = target: LAG-3-hFc protein (human LAG-3 extracellular region with hFc tag) (human) (UniProt P18627); test: ELISA, inhibition of LSECtin-His binding to coated LAG-3-hFc, antibody 200.000 nM, replicate 1
[17] = target: human LAG-3 on cells (HEK293-hLAG-3 stable cell line) (human) (UniProt P18627); test: FACS, HEK293-hLAG-3, antibody 0.064 nM; remark: listed apart in the source
[18] = target: LAG-3-hFc protein (human LAG-3 extracellular region with hFc tag) (human) (UniProt P18627); test: ELISA, inhibition of LSECtin-His binding to coated LAG-3-hFc, antibody 8.000 nM, replicate 1
[19] = target: T1, human LAG-3 on cells (HEK293-hLAG-3 stable cell line) (human, UniProt P18627 23-525); test: FACS, HEK293-hLAG-3, antibody 1.6 nM
T1 sequence: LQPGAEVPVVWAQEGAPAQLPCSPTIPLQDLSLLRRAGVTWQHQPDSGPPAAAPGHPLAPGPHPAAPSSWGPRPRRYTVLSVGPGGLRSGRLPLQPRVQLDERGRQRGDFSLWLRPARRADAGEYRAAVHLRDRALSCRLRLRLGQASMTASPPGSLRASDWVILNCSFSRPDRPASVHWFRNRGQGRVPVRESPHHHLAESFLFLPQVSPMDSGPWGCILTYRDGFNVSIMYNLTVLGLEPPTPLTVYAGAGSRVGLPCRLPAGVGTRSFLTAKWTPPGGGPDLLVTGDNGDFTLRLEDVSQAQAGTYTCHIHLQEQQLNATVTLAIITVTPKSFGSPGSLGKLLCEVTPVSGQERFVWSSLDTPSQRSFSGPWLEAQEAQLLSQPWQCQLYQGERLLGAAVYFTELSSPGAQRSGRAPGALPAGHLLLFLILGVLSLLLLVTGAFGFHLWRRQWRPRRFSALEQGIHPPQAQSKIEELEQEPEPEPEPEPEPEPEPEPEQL

[20] = target: T1, human LAG-3 on cells (HEK293-hLAG-3 …); test: FACS, HEK293-hLAG-3, antibody 0.32 nM
Text: (§1) A. The binding of antibodies to LAG-3 expressing cells was detected by Flow cytometry (FACS), wherein the method was according to that of Example 5.

[21] = target: T1, human LAG-3 on cells (HEK293-hLAG-3 …); test: FACS, HEK293-hLAG-3, antibody 0.013 nM
Text: as §1

[22] = target: T1, human LAG-3 on cells (HEK293-hLAG-3 …); test: FACS, HEK293-hLAG-3, antibody 0.064 nM
Text: as §1

monkey LAG-3 on cells (HEK293-cLAG-3 stable cell line) (monkey), sequence (P18627 other isoform, or with tags, fused parts or gaps limits assumed): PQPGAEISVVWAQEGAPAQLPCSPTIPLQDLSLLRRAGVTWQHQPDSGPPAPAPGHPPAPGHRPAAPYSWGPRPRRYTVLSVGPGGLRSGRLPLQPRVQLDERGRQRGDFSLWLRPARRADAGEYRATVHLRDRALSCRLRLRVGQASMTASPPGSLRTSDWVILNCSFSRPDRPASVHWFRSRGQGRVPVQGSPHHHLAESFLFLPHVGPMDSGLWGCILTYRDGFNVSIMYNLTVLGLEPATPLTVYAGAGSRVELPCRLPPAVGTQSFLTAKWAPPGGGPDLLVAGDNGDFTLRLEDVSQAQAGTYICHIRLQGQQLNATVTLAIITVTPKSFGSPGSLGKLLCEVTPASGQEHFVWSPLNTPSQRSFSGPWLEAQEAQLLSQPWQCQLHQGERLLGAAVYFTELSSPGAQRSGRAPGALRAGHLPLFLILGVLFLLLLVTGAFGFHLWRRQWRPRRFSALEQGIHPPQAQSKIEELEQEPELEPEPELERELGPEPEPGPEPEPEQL

## hIgG control (antibody)
[1]
  Inhibition rate (%): -10.1%
[2]
  Mean fluorescence intensity: 3.25
[3]
  Mean fluorescence intensity: 4
[4]
  Inhibition rate (%): 10.2%
[5]
  Inhibition rate (%): -15.1%
[6]
  Mean fluorescence intensity: 3.1
[7]
  Inhibition rate (%): -3.5%
[8]
  Mean fluorescence intensity: 4
[9]
  Mean fluorescence intensity: 3.1
[10]
  Mean fluorescence intensity: 3
[11]
  Inhibition rate (%): -3.6%
[12]
  Inhibition rate (%): -21.6%
[13]
  Inhibition rate (%): 2.1%
[14]
  Inhibition rate (%): -2.2%
[15]
  Inhibition rate (%): 0.7%
[16]
  Inhibition rate (%): 2.6%
[17]
  Mean fluorescence intensity: 4
[18]
  Inhibition rate (%): -4.3%

B1: 556F6B8 mouse-human chimeric antibody (antibody, V domains shown)
VH: RVQLKQSGPGLVQPSQSLSITCTVSGFSLIKYGVHWVRQSPGEGLEWLGVIWRGGITDYNAAFMSRLSITKDNSKSQVFFKMNSLQADDTAIYYCAKWDGPLAMDYWGQGTSVTVSS
VL: DIVMTQSHKFLSTSVGDRVSITCKASQDVGTTVAWYQQKPGQSPKLLIYWASTRHTGVPDRFTGSGSGTDFTLTISNVQSEDLADYFCQQYSSYPYTFGGGTKLEIK
notes: also called mAb123-556F6B8; 556F8B8
[19]
  Mean fluorescence intensity: 67

B2: 405B8H3 mouse-human chimeric antibody (antibody, V domains shown)
VH: QVQLQQSGAELVRPGASVTLSCKASGYTFTDYEMHWVKQTPVHGLEWIGATDPETGNSAYNQKFKGKAIMTADKSSSTAYMELRSLTSEDSAVYYCISTGWNDWGQGTSLTVSS
VL: DIKMTQSPSSMYASLGERVTITCKASQDINSYLSWFQQKPGKSPKTLIYRADRLLDGVPSRFSGSGSGQDYSLTISSLEYGDMGIYYCLQYDEFPYTFGGGTKLEIK
notes: also called mAb103-405B8H3
[20]
  Mean fluorescence intensity: 54
[21]
  Mean fluorescence intensity: 9
[22]
  Mean fluorescence intensity: 19
